Results from patent publication US20110269113A1 (University of Pennsylvania, published 2011).
Bridges are numbered along the chain shown (N, C = ends).

Assays:
[1] = target: C5a receptor (C5aR) (human) (UniProt P21730); experiment: cell-based or functional assay
[2] = target: complement component C3 (native C3) (human, UniProt P01024 23-1663); experiment: cell-based or functional assay
complement component C3 (native C3), sequence (P01024 23-1663 limits assumed): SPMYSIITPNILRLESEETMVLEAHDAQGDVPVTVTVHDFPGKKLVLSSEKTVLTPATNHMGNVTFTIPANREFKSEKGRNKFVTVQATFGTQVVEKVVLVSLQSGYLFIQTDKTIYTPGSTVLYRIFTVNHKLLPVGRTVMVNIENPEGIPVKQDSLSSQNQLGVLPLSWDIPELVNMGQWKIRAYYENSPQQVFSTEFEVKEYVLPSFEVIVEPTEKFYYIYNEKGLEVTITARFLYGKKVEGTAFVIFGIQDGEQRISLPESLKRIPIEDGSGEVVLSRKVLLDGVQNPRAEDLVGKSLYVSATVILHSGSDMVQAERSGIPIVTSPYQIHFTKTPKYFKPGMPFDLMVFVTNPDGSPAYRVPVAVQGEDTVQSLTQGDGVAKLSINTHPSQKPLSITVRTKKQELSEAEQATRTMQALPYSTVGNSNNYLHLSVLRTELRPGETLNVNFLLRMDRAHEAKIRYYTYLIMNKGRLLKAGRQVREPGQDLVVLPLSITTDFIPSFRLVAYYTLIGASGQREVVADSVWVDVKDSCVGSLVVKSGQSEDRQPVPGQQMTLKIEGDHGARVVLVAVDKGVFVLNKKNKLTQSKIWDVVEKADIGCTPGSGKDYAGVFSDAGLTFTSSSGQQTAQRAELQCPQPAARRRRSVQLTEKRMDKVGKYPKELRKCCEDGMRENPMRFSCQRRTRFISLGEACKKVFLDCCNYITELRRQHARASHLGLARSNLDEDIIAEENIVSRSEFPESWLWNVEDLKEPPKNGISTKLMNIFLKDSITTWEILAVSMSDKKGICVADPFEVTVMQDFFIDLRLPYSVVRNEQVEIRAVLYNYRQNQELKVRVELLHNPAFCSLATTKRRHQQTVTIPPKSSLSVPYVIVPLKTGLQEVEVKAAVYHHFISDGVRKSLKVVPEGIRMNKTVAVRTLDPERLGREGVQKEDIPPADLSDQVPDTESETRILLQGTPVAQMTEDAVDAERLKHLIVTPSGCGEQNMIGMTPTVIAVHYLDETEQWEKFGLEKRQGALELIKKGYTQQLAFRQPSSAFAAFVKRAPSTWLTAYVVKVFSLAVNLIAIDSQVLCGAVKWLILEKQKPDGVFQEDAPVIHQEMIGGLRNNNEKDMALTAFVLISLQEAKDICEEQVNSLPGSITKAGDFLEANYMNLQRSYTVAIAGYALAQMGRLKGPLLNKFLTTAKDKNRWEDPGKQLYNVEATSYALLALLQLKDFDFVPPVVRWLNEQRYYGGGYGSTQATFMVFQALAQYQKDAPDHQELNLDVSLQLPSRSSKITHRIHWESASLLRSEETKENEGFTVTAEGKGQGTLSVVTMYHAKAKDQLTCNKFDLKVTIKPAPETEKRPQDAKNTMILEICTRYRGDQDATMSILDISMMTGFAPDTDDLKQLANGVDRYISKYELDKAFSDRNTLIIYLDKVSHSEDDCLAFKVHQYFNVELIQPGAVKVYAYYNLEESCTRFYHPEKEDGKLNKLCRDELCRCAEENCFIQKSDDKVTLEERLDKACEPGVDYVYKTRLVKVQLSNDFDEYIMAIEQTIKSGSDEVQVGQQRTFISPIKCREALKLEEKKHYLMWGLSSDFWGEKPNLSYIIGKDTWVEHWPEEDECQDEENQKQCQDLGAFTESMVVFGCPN

C5a receptor (C5aR) (human), sequence (P21730 whole entry): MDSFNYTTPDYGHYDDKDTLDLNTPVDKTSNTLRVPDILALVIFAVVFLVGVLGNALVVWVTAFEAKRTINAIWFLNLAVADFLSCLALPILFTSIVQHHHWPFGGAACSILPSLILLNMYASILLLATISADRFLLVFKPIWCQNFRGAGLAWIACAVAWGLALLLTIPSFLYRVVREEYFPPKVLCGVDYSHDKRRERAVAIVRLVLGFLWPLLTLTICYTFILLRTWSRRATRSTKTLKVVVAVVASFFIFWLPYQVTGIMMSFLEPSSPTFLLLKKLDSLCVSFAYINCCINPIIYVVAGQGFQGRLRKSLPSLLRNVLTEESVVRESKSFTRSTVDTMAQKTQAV

TF mRNA expression in PMNs (real time RT-PCR) after C5aR antagonism (fold decrease) [1] | modified prothrombin time (mPT) of PMN supernatants; healthy serum preincubated with filter fibers, with C5aR antagonist [1] | modified prothrombin time (mPT) of PMN supernatants; predialysis ESRD serum preincubated with filter fibers, with C5aR antagonist [1] | modified prothrombin time (mPT) of supernatants of PMNs preincubated with C5aR antagonist (10 µM-30 min) [1] | TF mRNA expression in PMNs (real time RT-PCR) after Compstatin addition [2] | intracellular TF protein in PMNs, MFI fold expression (flow cytometry); fiber-activated healthy serum blocked with Compstatin [2] | Molecule
2.14 | 29.1 s | 26.1 s | 31.6 s | – | – | small cyclic hexapeptide (AcF-[OPdChaWR]), selective C5aR antagonist
– | – | – | – | 2.79 fold decrease | 1.01 MFI fold expression | Ac-ICVWQDWGAHRTCT-NH2 (disulfide 2-13; SMILES CC[C@H](C)[C@H](NC(C)=O)C(=O)N[C@H]1CSSC[C@@H](C(=O)N[C@H](C(N)=O)[C@@H](C)O)NC(=O)[C@H]([C@@H](C)O)NC(=O)[C@H](CCCNC(=N)N)NC(=O)[C@H](Cc2c[nH]cn2)NC(=O)[C@H](C)NC(=O)CNC(=O)[C@H](Cc2c[nH]c3ccccc23)NC(=O)[C@H](CC(=O)O)NC(=O)[C@H](CCC(N)=O)NC(=O)[C@H](Cc2c[nH]c3ccccc23)NC(=O)[C@H](C(C)C)NC1=O) [Compstatin, a 13-residue cyclic peptide (Ac-I[CVWQDWGAHRTC]TNH2)]
